Reference: PMC6484772, “S100A3 a partner protein regulating the stability/activity of RARα and PML-RARα in cellular models of breast/lung cancer and acute myeloid leukemia” (Oncogene, 2018)

Target: T1, GST-RARα (UniProt P10276 1-462)
T1 construct: full-length RARα; also called GST-tagged full-length RARα; source: GST-tagged recombinant protein
T1 sequence (looked up): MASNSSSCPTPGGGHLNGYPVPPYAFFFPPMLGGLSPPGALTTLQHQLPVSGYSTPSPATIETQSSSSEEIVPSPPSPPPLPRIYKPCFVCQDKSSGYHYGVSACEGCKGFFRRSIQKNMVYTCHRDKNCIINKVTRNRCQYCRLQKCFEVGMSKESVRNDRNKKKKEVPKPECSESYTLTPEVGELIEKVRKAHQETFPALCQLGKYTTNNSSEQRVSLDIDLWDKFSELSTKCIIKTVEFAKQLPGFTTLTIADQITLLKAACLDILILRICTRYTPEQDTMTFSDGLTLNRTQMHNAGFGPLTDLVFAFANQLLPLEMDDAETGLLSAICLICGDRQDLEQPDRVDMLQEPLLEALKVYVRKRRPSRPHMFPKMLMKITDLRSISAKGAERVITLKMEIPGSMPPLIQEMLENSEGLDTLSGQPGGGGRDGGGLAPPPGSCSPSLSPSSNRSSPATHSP
Test: far-Western, overlay or dot blot; S100A3 immunoprecipitated from extracts of transfected COS-7 cells with anti-S100A3 beads, resolved and blotted; probed with GST-tagged RARα recombinant proteins; developed with an anti-GST antibody
Settings: both partners purified

B1: S100A3 (over-expressed in COS-7) (natural protein, human, UniProt P33764 1-101, looked up)
chain: MARPLEQAVAAIVCTFQEYAGRCGDKYKLCQAELKELLQKELATWTPTEFRECDYNKFMSVLDTNKDCEVDFVEYVRSLACLCLYCHEYFKDCPSEPPCSQ
notes: protein S100-A3; source: COS-7, transiently transfected (pcDNA3 expression plasmid for the S100A3 cDNA), in cell extract; immunoprecipitated with anti-S100A3 for the far-western
  binding result: binds
